Consider 103 substances from the supplement of paper PMC12042874.

± gives the uncertainty stated by the source.

The data set can be described thus: amyloid nucleation score (Sup35N fusion, yeast selection) (log enrichment); library NNK1; higher = more nucleation; inactive = no reads after selection. Summed up: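 Random libraries were run with three technical output replicates. In each, psi-negative yeast expressing Sup35N fused to peptides of 20 random codons were induced 24 hours with 100 μM copper sulfate and grown 7 days at 30°C on medium lacking adenine and uracil, and input and output plasmid inserts were Illumina-sequenced. The nucleation score is the DiMSum log enrichment of output over input reads, centred on the mode score of non-aggregating sequences, and sequences under 100 input reads were excluded.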
The substance FNTALSDPYVTMWHYYTNYC registered an amyloid nucleation score of -0.8 ± 0.63.

On to FNYNLCMFMHSVELFLIKIE, for which the amyloid nucleation score is 8.162 ± 0.075.

Substance FPASNAQNLRLFQVGYGRPQ yielded an amyloid nucleation score of 0.185 ± 1.1.

In the case of FPEWNSWYQRRVMAKGAHGY, the amyloid nucleation score came out at 0.58 ± 1.1.

For the substance FPNLHLTELCLGRIYVRACY, the amyloid nucleation score entry was “inactive”.

Consider FPNVDNNV, for which the amyloid nucleation score result was “inactive”.

Regarding FPQLGLG, the amyloid nucleation score result is “inactive”.

Turning to FPSLNNVNPSGFCSISSFRG, the amyloid nucleation score entry is “inactive”.

FPYRGLLFTRLIPAAVGKGA displayed an amyloid nucleation score of 0.171 ± 0.74.

FQGRLVFVDCDIRLVALKGS gave an amyloid nucleation score of 3.88 ± 0.067.

FQGVGDIGSVLHAMFLCYGS came in with an amyloid nucleation score of 2.94 ± 0.15.

FQKYGQCSHYRVVDRKLQCS displayed an amyloid nucleation score of 0.314 ± 1.4.

FQLGAHKLRAWLDRGYPEFA displayed an amyloid nucleation score of -0.202 ± 0.64.

FQRGKLTASLSMVHSSRVCF gave an amyloid nucleation score of -1.6 ± 2.4.

Take FQSARR: the amyloid nucleation score worked out at 0.575 ± 0.36.

On to FQVLYNGVMCHYSCWCVWKV, for which the amyloid nucleation score is 1.05 ± 0.19.

Substance FRCLTVYCWF registered an amyloid nucleation score of 7.894 ± 0.044.

FRDFMMTFMFPRDMSSGAVG came in with an amyloid nucleation score of 0.067 ± 0.4.

As for FRFAMRYFRGIYELRNENRR, the amyloid nucleation score entry is “inactive”.

FRGRDSCGHH gave an amyloid nucleation score of 0.101 ± 0.44.

FRGWV showed an amyloid nucleation score of 1.62 ± 0.12.

With FRGYHSSMSGNGDDNEKFGG, the amyloid nucleation score was 0.24 ± 0.71.

As for FRHGKVWSLLKLGADAGREE, the amyloid nucleation score turned out to be 0.098 ± 0.91.

The substance FRHVQSMRACFLKSKYGATI had an amyloid nucleation score of 0.195 ± 0.84.

In the case of FRICYCWFGGEKDHRNFQIG, the amyloid nucleation score is 3.86 ± 0.06.

Regarding FRKFSCCVGSLVSSSYVLDS, the amyloid nucleation score was determined as 6.16 ± 0.064.

Consider FRKKCGVNEIYLWGDSG, for which the amyloid nucleation score entry is “inactive”.

For FRLARGVVWCPGGISC, the amyloid nucleation score is -0.536 ± 0.42.

In the case of FRLMVPGVCRRLANGLRMIW, the amyloid nucleation score was -0.3 ± 0.35.

FRSLSSGIFGACWWYMFYSM had an amyloid nucleation score of 0.229 ± 0.6.

On to FRSNGQNLVTAISSMDVRAN, for which the amyloid nucleation score was -2.14 ± 2.7.

On to FRVFIYPMWRSMWCFGYKEG, for which the amyloid nucleation score entry is “inactive”.

Substance FRVWSAFPYVGKSSPFGHSS had an amyloid nucleation score of -0.89 ± 0.53.

Turning to FRWPSLLGNLLKLGVDTAD, the amyloid nucleation score was -0.126 ± 0.38.

For FSAKYMQGTQWSRLVHMLRT, the amyloid nucleation score amounted to 0.112 ± 0.48.

In turn, FSARTTVENAEDRSFDNQLV displayed an amyloid nucleation score of 0.312 ± 0.4.

Consider FSCSVDLKSSHMEVARNGYP, for which the amyloid nucleation score result was “inactive”.

Take FSFYLYGGSC: the amyloid nucleation score is -1.47 ± 2.4.

With FSGHFNARGFSDSWYVCMIG, the amyloid nucleation score was -0.855 ± 1.6.

The substance FSGLDYNVYVNLVPYFLCIN came in with an amyloid nucleation score of 6.34 ± 0.077.

FSGVMLVEWLTSPRHLRRAL had an amyloid nucleation score of 0.678 ± 1.1.

FSILILRHCVDLRYRVTSTM registered an amyloid nucleation score of 0.446 ± 0.6.

In turn, FSITLTPHRGSVMNIYTANV had an amyloid nucleation score of 1.59 ± 0.17.

Substance FSMVLSSTMDLRRELLWNSV showed an amyloid nucleation score of -0.299 ± 0.73.

As for FSREYL, the amyloid nucleation score is -0.251 ± 0.3.

For the substance FSSCVNDFLGGRPPSKVLSF, the amyloid nucleation score was determined as 0.068 ± 0.48.

FSVARFGWFLVSALLQGWDR had an amyloid nucleation score of -0.142 ± 0.55.

The substance FSVMKCWPSPRPVNRFLIYA gave an amyloid nucleation score of -0.706 ± 0.46.

FSYNVVLRFSLRISSNYFAS yielded an amyloid nucleation score of -1.12 ± 0.86.

FTAKSL gave an amyloid nucleation score of -0.324 ± 0.38.

For the substance FTFFRRW, the amyloid nucleation score entry was “inactive”.

The substance FTFSTGLLFYMFLYGWVH yielded an amyloid nucleation score of -0.62 ± 0.34.

FTFYYCIRY: the amyloid nucleation score worked out at 0.673 ± 0.47.

On to FTMYKCMCSMGRRNSAGGAS, for which the amyloid nucleation score is -0.325 ± 0.98.

FTNKFCFL yielded an amyloid nucleation score of 0.069 ± 0.35.

FTRQLWYMSICRYFQLPTFY yielded an amyloid nucleation score of 1.95 ± 0.56.

FTVGYGSYGLT came in with an amyloid nucleation score of 0.306 ± 0.54.

FTYRGYSDQLMVSLLSLLSE gave an amyloid nucleation score of 1.68 ± 0.48.

In turn, FTYSLFCAYI showed an amyloid nucleation score of 1.18 ± 0.66.

With FVCSVFKSYCKSRVFFARAT, the amyloid nucleation score is -0.025 ± 0.28.

The substance FVGFDCYNSVSCCFTMRVSE had an amyloid nucleation score of 4.02 ± 0.065.

FVGIQHRMSYWLCGRHAIVI returned an amyloid nucleation score of 0.965 ± 0.71.

In turn, FVGQRKLLLKEEAQGFLQCK displayed an amyloid nucleation score of -0.707 ± 1.2.

FVGTKQWMARGLVNDVKPVH showed an amyloid nucleation score of -0.161 ± 0.45.

Take FVKVLDFYLMLSCHTICLFG: the amyloid nucleation score is -0.832 ± 1.5.

FVLCFFLACGITRNGMPCMV: the amyloid nucleation score is 1.26 ± 0.76.

The substance FVLLNLPLVKRVCRIVGYWG showed an amyloid nucleation score of -0.327 ± 0.51.

FVLSIFYIWGKSPSRTYWMN registered an amyloid nucleation score of -0.322 ± 0.74.

The substance FVNIADDRRVYLILSVHGDL yielded an amyloid nucleation score of 6.575 ± 0.05.

Turning to FVPIF, the amyloid nucleation score is -0.208 ± 0.72.

For the substance FVPLTVN, the amyloid nucleation score was -0.068 ± 0.28.

As for FVRSFYSDKLWQIFGWVVGS, the amyloid nucleation score is -0.753 ± 0.51.

Regarding FVRVLTFPYPMNVFIRLSLA, the amyloid nucleation score entry was “inactive”.

In the case of FVTNTWRVTVCPSQLFGILR, the amyloid nucleation score result was “inactive”.

The substance FVWIWYCPIYHCEVLARSPR had an amyloid nucleation score of -0.614 ± 0.83.

FVYDFNGKKFLGLSCALYII displayed an amyloid nucleation score of 0.22 ± 1.2.

FVYFTGIMIC gave an amyloid nucleation score of -0.46 ± 1.

As for FWHPLG, the amyloid nucleation score was -0.342 ± 0.28.

FWLIHGMIQMGYVK showed an amyloid nucleation score of -0.458 ± 1.2.

Substance FWLNLPAWISFAMFVCIVYV yielded an amyloid nucleation score of -0.132 ± 0.47.

The substance FWNFRVIC yielded an amyloid nucleation score of 0.259 ± 1.4.

With FWPFHDDLDVVSAFCYIRIL, the amyloid nucleation score was -0.707 ± 0.82.

In turn, FWPNRLR registered an amyloid nucleation score of 0.169 ± 0.56.

Consider FWRKENGYWLGFMPLVREGT, for which the amyloid nucleation score turned out to be 0.247 ± 0.35.

Substance FWRNEVMLSCVGTAMARRVF returned an amyloid nucleation score of 0.398 ± 0.37.

As to FWSLRMLMLADSSDKCVDYC, the amyloid nucleation score entry is “inactive”.

Regarding FWSYSMP, the amyloid nucleation score result was “inactive”.

Substance FWVRSGCVSMYGPRRVALEV showed an amyloid nucleation score of -0.003 ± 0.43.

FYFLKDY gave an amyloid nucleation score of -0.763 ± 0.3.

In turn, FYGCFRVHCVISMLGWR had an amyloid nucleation score of 0.109 ± 0.36.

FYGMDLSVSRFF registered an amyloid nucleation score of 0.031 ± 0.47.

For FYIVCRNFKTYLPSLGF, the amyloid nucleation score was -1.12 ± 2.4.

For the substance FYKTL, the amyloid nucleation score was -1.19 ± 1.2.

Substance FYPLVTFFVLHHGNMNIHRV yielded an amyloid nucleation score of 6.778 ± 0.066.

Turning to FYPYN, the amyloid nucleation score was 0.743 ± 0.79.

Substance FYSFWMGRTCMFIVTRVNSA showed an amyloid nucleation score of -0.091 ± 0.31.

FYSMSGWYSTVKGVCIRTLT showed an amyloid nucleation score of 1.02 ± 0.35.

For the substance FYTISFLAIIATENIFCSSS, the amyloid nucleation score stood at 4.42 ± 0.053.

In the case of FYVMSMLIM, the amyloid nucleation score stood at 0.029 ± 0.47.

Consider FYYGSVSLSWF, for which the amyloid nucleation score entry was “inactive”.

For the substance GAFEGVFHRVMSDGRGAFAR, the amyloid nucleation score is -0.289 ± 0.42.

For the substance GAFRVVSQHRASDVS, the amyloid nucleation score was -0.116 ± 0.41.

The substance GAKEDERSNWSVVNMLGREL had an amyloid nucleation score of -0.341 ± 0.39.
